This note sets out measurements from publication PMC10786891, “Massively parallel profiling of RNA-targeting CRISPR-Cas13d”.

Residue numbers refer to the chain shown, from its start. Numbers in names are those of the source.

First the molecules themselves.
T1: EsCas13d, nuclease-dead (Eubacterium siraeum, UniProt B0MS50, R295A;H300A;R849A;H854A)
T1 sequence: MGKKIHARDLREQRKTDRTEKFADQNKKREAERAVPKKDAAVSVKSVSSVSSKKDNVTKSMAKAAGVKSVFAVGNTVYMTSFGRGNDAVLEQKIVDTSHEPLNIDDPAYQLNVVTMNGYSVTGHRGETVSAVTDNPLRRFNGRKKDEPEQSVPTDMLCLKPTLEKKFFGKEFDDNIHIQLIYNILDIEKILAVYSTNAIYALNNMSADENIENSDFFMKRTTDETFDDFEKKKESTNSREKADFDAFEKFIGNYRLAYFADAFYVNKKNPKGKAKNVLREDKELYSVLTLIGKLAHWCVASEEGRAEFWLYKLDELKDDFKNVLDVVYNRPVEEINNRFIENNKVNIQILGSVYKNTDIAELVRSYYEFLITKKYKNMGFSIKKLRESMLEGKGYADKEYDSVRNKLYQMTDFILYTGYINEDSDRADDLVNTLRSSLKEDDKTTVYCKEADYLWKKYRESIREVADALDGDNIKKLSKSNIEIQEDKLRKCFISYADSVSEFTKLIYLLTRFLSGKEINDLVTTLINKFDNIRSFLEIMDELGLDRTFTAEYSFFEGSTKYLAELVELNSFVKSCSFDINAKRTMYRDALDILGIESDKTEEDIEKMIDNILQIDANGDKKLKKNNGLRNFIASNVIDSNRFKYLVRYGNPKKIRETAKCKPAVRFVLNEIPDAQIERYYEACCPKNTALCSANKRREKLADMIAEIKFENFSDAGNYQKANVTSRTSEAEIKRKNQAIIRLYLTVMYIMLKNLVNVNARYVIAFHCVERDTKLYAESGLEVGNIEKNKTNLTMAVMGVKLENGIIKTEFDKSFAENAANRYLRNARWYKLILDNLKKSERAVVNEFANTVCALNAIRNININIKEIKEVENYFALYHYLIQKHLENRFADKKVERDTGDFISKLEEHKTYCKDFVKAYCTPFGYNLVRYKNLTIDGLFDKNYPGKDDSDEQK

B1: target 1 A20C (mixed)
RNA 1: CACCCGUGCAAAAAUGCAGGGGUCUAAAACUGAGCGGAUAACCUCUCUAUGG
RNA 2: GGGAAUGGAUCCACAUCUACGAAUUCGUACCCUAGAGAGGUUAUCCGCUCACCGAGAUCGGAAGAGCACACGU
B2: target 1 insU 3' of 18,insC 3' of 15 (mixed)
RNA 1: B1 RNA 1
RNA 2: GGGAAUGGAUCCACAUCUACGAAUUCGUACCAUAUGAGCAGGUUAUCCGCUCACCGAGAUCGGAAGAGCACACGU
B3: target 1 insC 3' of 15,insA 3' of 10 (mixed)
RNA 1: B1 RNA 1
RNA 2: B2 RNA 2 with U35G, G36A, A37G, G38C, C39A, A40G, G42U, U44A
B4: target 1 C6A,G17A (mixed)
RNA 1: B1 RNA 1
RNA 2: B1 RNA 2 with C32A, G35A, C46A
B5: target 1 insU 3' of 9,insU 3' of 2 (mixed)
RNA 1: B1 RNA 1
RNA 2: GGGAAUGGAUCCACAUCUACGAAUUCGUACCAUAGAGAGGUUAUUCCGCUCUACCGAGAUCGGAAGAGCACACGU
B6: target 1 insC 3' of 10,insG 3' of 9 (mixed)
RNA 1: B1 RNA 1
RNA 2: B5 RNA 2 with A43C, U44A, U45G, C46U, G48C, C49G, U50C, C51U, U52C
B7: target 1 C4G,A9G (mixed)
RNA 1: B1 RNA 1
RNA 2: B1 RNA 2 with C32A, A43G, C48G
B8: target 1 insC 3' of 14,insG 3' of 14 (mixed)
RNA 1: B1 RNA 1
RNA 2: B2 RNA 2 with U35G, G36A, A37G, G38A, A40G
B9: target 1 G17U,U19G (mixed)
RNA 1: B1 RNA 1
RNA 2: B1 RNA 2 with C32A, U33G, G35U
B10: target 1 C2U,A20C (mixed)
RNA 1: B1 RNA 1
RNA 2: B1 RNA 2 with C50U
B11: target 1 A1C,A20C (mixed)
RNA 1: B1 RNA 1
RNA 2: B1 RNA 2 with A51C
B12: target 1 C4G,C21A (mixed)
RNA 1: B1 RNA 1
RNA 2: B1 RNA 2 with C31A, C32A, C48G
B13: target 1 C7G,A16G (mixed)
RNA 1: B1 RNA 1
RNA 2: B1 RNA 2 with C32A, A36G, C45G
B14: target 1 insU 3' of 17,insC 3' of 16 (mixed)
RNA 1: B1 RNA 1
RNA 2: B2 RNA 2 with U35G, G36U, G38C, C39G
B15: target 1 C7U,G12U (mixed)
RNA 1: B1 RNA 1
RNA 2: B1 RNA 2 with C32A, G40U, C45U
B16: target 1 U10A,U11A (mixed)
RNA 1: B1 RNA 1
RNA 2: B1 RNA 2 with C32A, U41A, U42A
B17: target 1 G5C,C6G (mixed)
RNA 1: B1 RNA 1
RNA 2: B1 RNA 2 with C32A, C46G, G47C
B18: target 1 insU 3' of 20,insC 3' of 18 (mixed)
RNA 1: B1 RNA 1
RNA 2: B2 RNA 2 with A34U, U35A, G36C, A37G, G38A, C39G
B19: target 1 insC 3' of 18,insU 3' of 5 (mixed)
RNA 1: B1 RNA 1
RNA 2: B2 RNA 2 with U35C, C39A, A40G, G42U, U44A, A45U, U46C, C48G, G49U
B20: target 1 C2A,G13U (mixed)
RNA 1: B1 RNA 1
RNA 2: B1 RNA 2 with C32A, G39U, C50A
B21: target 1 complement block 1-7 (mixed)
RNA 1: B1 RNA 1
RNA 2: B1 RNA 2 with C32A, C45G, C46G, G47C, C48G, U49A, C50G, A51U
B22: target 1 insG 3' of 8,insC 3' of 3 (mixed)
RNA 1: B1 RNA 1
RNA 2: B5 RNA 2 with U45G, U52C
B23: target 1 insC 3' of 16,insC 3' of 1 (mixed)
RNA 1: B1 RNA 1
RNA 2: B5 RNA 2 with G37C, A38G, G39A, U41G, A43U, U44A, U52A, A53C
B24: target 1 U3G,G5U (mixed)
RNA 1: B1 RNA 1
RNA 2: B1 RNA 2 with C32A, G47U, U49G
B25: target 1 insA 3' of 7,insG 3' of 1 (mixed)
RNA 1: B1 RNA 1
RNA 2: B5 RNA 2 with U45C, C46A, U52A, A53G
B26: target 1 C2G,U3C (mixed)
RNA 1: B1 RNA 1
RNA 2: B1 RNA 2 with C32A, U49C, C50G
B27: target 1 C7A,C22G (mixed)
RNA 1: B1 RNA 1
RNA 2: B1 RNA 2 with C30G, C32A, C45A
B28: target 1 G5C,G17A (mixed)
RNA 1: B1 RNA 1
RNA 2: B1 RNA 2 with C32A, G35A, G47C
B29: target 1 insG 3' of 3,insG 3' of 2 (mixed)
RNA 1: B1 RNA 1
RNA 2: B5 RNA 2 with U45C, C47G, G48C, C49U, U50G, U52G
B30: target 1 A1U,C4A (mixed)
RNA 1: B1 RNA 1
RNA 2: B1 RNA 2 with C32A, C48A, A51U
B31: target 1 U3G,A14G (mixed)
RNA 1: B1 RNA 1
RNA 2: B1 RNA 2 with C32A, A38G, U49G
B32: target 1 A1G,A18C (mixed)
RNA 1: B1 RNA 1
RNA 2: B1 RNA 2 with C32A, A34C, A51G
B33: target 1 U3G,A20U (mixed)
RNA 1: B1 RNA 1
RNA 2: B1 RNA 2 with C32U, U49G

The data set deals with T1, EsCas13d, nuclease-dead. Kind of data set: crRNA (strand 1, pre-loaded); Mg2+; 40 mM Tris-HCl pH 7.5, 150 mM NaCl, 6 mM MgCl2, 1 mM DTT, 0.1% Tween-20, 0.2 mg/ml BSA; 25 C; 10 min per concentration, then washed. Conditions: tags: His6-TwinStrep-SUMO cleaved; N-terminal SNAP kept (SNAP-Surface 488); label: 3' end held by stalled T7 RNA polymerase.
Turning to B1, the Kd amounted to 34.2 ± 2.5 nM. With B2 the figure was 49 ± 5 nM; with B3, 65 ± 11 nM; with B4, 37.8 ± 2.4 nM.

Molecule B5 returned a Kd of 20.2 ± 1 nM. Against the preceding molecule, the Kd is about 1.9-fold lower. In turn, B6 registered a Kd of 17.1 ± 1 nM. In the case of B7 it was 3.9 ± 0.34 nM. In the case of B8 it was 50 ± 6 nM. B9 returned a Kd of 80 ± 40 nM. For B10, the dissociation constant (Kd) is 31.4 ± 1.6 nM. B11 displayed a Kd of 32 ± 4 nM. In the case of B12 it was 25.5 ± 2.8 nM; in that of B13, 34 ± 4 nM. In the case of B14 it was 91 ± 20 nM; in that of B15, 13.4 ± 1.1 nM; in that of B16, 11.8 ± 0.4 nM. With B17 the figure was 10.9 ± 0.6 nM. B18 returned a Kd of 36 ± 4 nM. With B19 the figure was 84 ± 31 nM. In the case of B20, the affinity, expressed as Kd, was 49 ± 8 nM. In the case of B21 it was 23.9 ± 2.4 nM; in that of B22, 12.7 ± 0.6 nM; in that of B23, 77 ± 32 nM.

B24 showed a Kd of 14.1 ± 0.5 nM. B25: binding was put at a Kd of 6.8 ± 0.4 nM. With B26 the figure was 8.6 ± 0.7 nM. With B27 the figure was 41 ± 6 nM; with B28, 79 ± 28 nM.

Molecule B29 displayed a dissociation constant Kd of 6.2 ± 0.4 nM. Consider B30, for which the Kd is 5.92 ± 0.27 nM. In the case of B31 it was 12.9 ± 1.2 nM; in that of B32, 62 ± 8 nM; in that of B33, 38 ± 4 nM.

As a reminder, the Kd is the equilibrium constant for the complex coming apart. Higher therefore signals a looser complex.
